Key:
[1] = Heparanase activity assay of transfected 293 cell lysates on 35S-labelled ECM; format: biochemical, human
Description: FIG. 2. Cloning and expression of T5. A. RT-PCR analysis. Total RNA was extracted from the indicated cell line and subjected to RT-PCR analysis applying T5 (upper panel), heparanase (second panel) and GAPDH (third panel) specific primers, specified in the ‘Materials and Methods’ section. B. T5 transfection. […] Control cells were transfected with an empty vector (Vo). Cell lysates (left) and cell conditioned medium (right) were blotted with anti-heparanase 1453 antibody. C. Cellular localization. Stably transfected 293 cells were triple stained for Myc-tag (T5; middle, red), the ER marker calnexin (ER, left, green), and merged with cell nuclei labeled with TO-PRO (right, blue). Cells were similarly stained with anti-Myc-tag (T5; middle, red), the Golgi marker wheat germ agglutinin-FITC (Golgi, left, green) and merged with cell nuclei labeled with TO-PRO (right, blue). […] D. Enzymatic activity. 293 cells transfected with heparanase (Hepa), T5 or control empty vector (Vo) were subjected to three freeze-thaw cycles and applied onto culture dishes coated with ^35S-labelled ECM. Release of sulfate-labeled material eluted in fractions 15-30 was evaluated as measure of heparanase activity, as described in ‘Materials and Methods’. […]

Binding to heparin beads = conditions: lysates of over expressing 293 cells, heparin beads
Description: FIG. 7. […] A. Cell lysates. […] B,C. Peptide analysis. […] C. Enzymatic activity.

Src = Src phosphorylation (immunoblot, densitometry) in 293 cells; format: cell-based, human; conditions: over expressing 293 cells, serum-free
Description: FIG. 3. T5 augments Src phosphorylation. A. Over expression. CAG myeloma (left) and 293 (right) cells infected with heparanase (Hepa), T5, or control empty vector (Vo) were grown in the absence (-) or presence (+) of heparin (50 μg/ml) under serum-free conditions. Total cell lysates were subjected to immunoblotting applying anti-heparanase 1453 (upper and second panels), anti-phospho-Src (p-Src, third panels), anti-Src (fourth panels) anti-phospho-Erk (p-Erk, fifth panels), and anti-Erk2 (sixth panels) antibodies. Src phosphorylation index was calculated by densitometry analysis of phosphorylated Src levels divided by the total Src values. […] B. Gene silencing. Parental 293 cells were transfected with anti-heparanase, anti-T5, or control siRNAs. Total RNA was extracted and RT-PCR analysis was performed applying T5 (upper panel), heparanase (Hepa, second panel) and GAPDH (third panel) specific primers. Corresponding cell lysates were subjected to immunoblotting applying phospho-Src (p-Src, fourth panel), Src (fifth panel), phospho-Erk (p-Erk, sixth panel) and Erk2 (seventh panel) antibodies. Src phosphorylation index was calculated as above and is shown graphically in the lower panel. Note decreased Src phosphorylation levels upon T5 down regulation. […]

Erk = Erk phosphorylation (immunoblot) in CAG myeloma and 293 cells; format: cell-based, human
Description: FIG. 3. T5 augments Src phosphorylation. A. Over expression. CAG myeloma (left) and 293 (right) cells infected with heparanase (Hepa), T5, or control empty vector (Vo) were grown in the absence (−) or presence (+) of heparin (50 μg/ml) under serum-free conditions. Total cell lysates were subjected to immunoblotting applying anti-heparanase 1453 (upper and second panels), anti-phospho-Src (p-Src, third panels), anti-Src (fourth panels) anti-phospho-Erk (p-Erk, fifth panels), and anti-Erk2 (sixth panels) antibodies. Src phosphorylation index was calculated by densitometry analysis of phosphorylated Src levels divided by the total Src values. Data is presented as average fold increase ±SE of Src phosphorylation compared with control, Vo cells, set arbitrary to a value of 1 (lower panels) of five independent experiments. B. Gene silencing. Parental 293 cells were transfected with anti-heparanase, anti-T5, or control siRNAs. Total RNA was extracted and RT-PCR analysis was performed applying T5 (upper panel), heparanase (Hepa, second panel) and GAPDH (third panel) specific primers. Corresponding cell lysates were subjected to immunoblotting applying phospho-Src (p-Src, fourth panel), Src (fifth panel), phospho-Erk (p-Erk, sixth panel) and Erk2 (seventh panel) antibodies. Src phosphorylation index was calculated as above and is shown graphically in the lower panel. […]

CAG myeloma cells = assay: Cell proliferation by BrdU incorporation, CAG myeloma cells; format: cell-based, human; conditions: infected CAG cells, serum-free 20 h, BrdU 2 h; control Vo 24±3%
Description: FIG. 4. T5 augments cell proliferation. A. BrdU incorporation. Morphology of control (Con), heparanase (Hepa)- and T5-infected CAG myeloma cell cultures is shown in the upper panels. […] Sub-confluent cultures of control (Vo), heparanase (Hepa)- and T5-infected CAG cells were grown in serum-free medium for 20 h followed by incubation with BrdU (1:1000) for 2 h. Cells were then fixed and immunostained with anti BrdU monoclonal antibody. Positively stained, red-brown nuclei were counted vs. blue, hematoxilin counter-stained nuclei. At least 1000 cells were counted for each cell type and the percentage of positively stained cells is noted in each panel. Fold increase in BrdU incorporation is shown graphically on the right panel. Gene silencing. 293 cells were transfected with anti-GFP (si-GFP), anti-heparanase (si-Hepa) or anti-T5 siRNA oligonucleotides and BrdU incorporation was evaluated as above except that cells were kept in serum-containing medium (lower panels). Note 2-fold decrease in BrdU incorporation following heparanase or T5 gene silencing (lower right panel). B. Colony formation in soft agar. […]
Cell proliferation was analyzed by BrdU incorporation using cell proliferation labeling reagent (1:1000, GE Healthcare), as described in Zetser, A., et al (2003 Cancer Res 63, 7733-7741). At least 1000 cells were counted for each cell type.

B1: T5: novel splice variant of heparanase; truncated, enzymatically inactive 169 amino acid protein (protein, listed as Homo sapiens)
chain: MLLRSKPALPPPLMLLLLGPLGPLSPGALPRPAQAQDVVDLDFFTQEPLHLVSPSFLSVTIDANLATDPRFLILLGSPKLRTLARGLSPAYLRFGGTKTDFLIFDPKKESTFEERSYWQSQVNQDICKYGSIPPDVEEKLRLEWPYQEQLLLREHYQKKFKNSTYSSKK
[1]; T5 vs. Vo transfected 293 cells
  effect on the activity of endogenous heparanase: did not seem to significantly impinge on the activity of endogenous heparanase
[1]; lysates of stably transfected 293 cells, T5 vs. Hepa
  heparanase enzymatic activity: lacks heparanase enzymatic activity
Binding to heparin beads
  heparin binding of protein in cell lysates: failed to bind heparin
Src
  Src phosphorylation enhancement vs control Vo cells: ~4 fold
Erk
  Erk phosphorylation upon over expression: not affected
CAG myeloma cells
  BrdU incorporation (positively stained cells): 52±5%
